Measured values: US20170009259A1 (SUMITOMO RUBBER INDUSTRIES, published 2017)

T1: Hevea rubber transferase 2 (HRT2), cis-prenyltransferase from Hevea brasiliensis (Hevea brasiliensis, UniProt Q8W3U4 1-284)
T1 construct: In the yeast two-hybrid assay it was expressed from the pPR3-N prey vector (pPR-HRT2) or the pBT3-SUC bait vector (pBT-HRT2); also called CPT; pPR-HRT2
T1 sequence: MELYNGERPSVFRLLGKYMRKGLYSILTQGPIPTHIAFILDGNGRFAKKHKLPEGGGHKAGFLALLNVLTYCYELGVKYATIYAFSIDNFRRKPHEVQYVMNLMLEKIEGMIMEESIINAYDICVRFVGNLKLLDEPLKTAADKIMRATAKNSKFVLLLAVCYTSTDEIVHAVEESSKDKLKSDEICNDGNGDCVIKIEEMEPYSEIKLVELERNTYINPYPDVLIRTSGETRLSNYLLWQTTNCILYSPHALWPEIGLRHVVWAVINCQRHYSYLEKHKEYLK

B1: Hevea rubber transferase 1 (HRT1), cis-prenyltransferase from Hevea brasiliensis (enzyme)
chain: MELYNGERPSVFRLLGKYMRKGLYSILTQGPIPTHIAFILDGNRRFAKKHKLPEGGGHKAGFLALLNVLTYCYELGVKYATIYAFSIDNFRRKPHEVQYVMDLMLEKIEGMIMEESIINAYDICVRFVGNLKLLSEPVKTAADKIMRATANNSKCVLLIAVCYTSTDEIVHAVEESSELNSNEVCNNQELEEANATGSGTVIQIENMESYSGIKLVDLEKNTYINPYPDVLIRTSGETRLSNYLLWQTTNCILYSPHALWPEIGLRHVVWAVINFQRHYSYLEKHKEYLK
notes: In the yeast two-hybrid assay it was expressed from the pPR3-N prey vector (pPR-HRT1) or the pBT3-SUC bait vector (pBT-HRT1); also called CPT; pPR-HRT1
B2: Nogo-B receptor (NgBr) from Hevea brasiliensis (receptor)
chain: MDLKPGAGGQRVNRLVDPISYHFLQFLWRTLHLLVSLWYLQVSMVQMIEGFLISSGLVKRYGALDIDKVRYLAIVVDSEEAYQISKVIQLLKWVEDMGVKHLCLYDSKGVLKTNKKTIMESLNNAMPFEEAVEKDVLLDQKQMTVEFASSSDGKEAITRAANVLFMKYLKYAKTGVGKEEPCFTEDQMDEALKAIGYKGPEPDLLLIYGPVRCHLGFSPWRLRYTEMVHMGPLRYMNLGSLKKAIHRFTTVQQNYGT
notes: In the yeast two-hybrid assay it was expressed from the pBT3-SUC bait vector (pBT-NgBr); also called pBT-NgBr

Columns and labels:
[1] = target: T1, Hevea rubber transferase 2 (HRT2), …; assay: yeast two-hybrid, pPR-HRT1 prey with pBT-HRT2 bait (pair No. 6), growth on Trp-, Leu-, Ade- and His-deficient SD medium
Method: (§1) The yeast strain NMY-51 was transformed with the collected plasmids. The PEG method was used for the double transformation of the yeast. The transformant cells were cultured at 30° C. for three days on Trp- and Leu-deficient SD medium for screening.
(§2) In this experiment, the yeast can grow on the selective medium only when a protein encoded by the gene introduced in the bait plasmid interacts with a protein encoded by the gene introduced in the prey plasmid.

[2] = target: B2; assay: yeast two-hybrid, pPR-HRT1 prey with pBT-NgBr bait (pair No. 5), growth on Trp-, Leu-, Ade- and His-deficient SD medium
Method: as §1, §2

[3] = target: T1, Hevea rubber transferase 2 (HRT2), …; assay: yeast two-hybrid, pPR-HRT2 prey with pBT-NgBr bait (pair No. 9), growth on Trp-, Leu-, Ade- and His-deficient SD medium
Method: as §1, §2

binding result [1] | binding result [2] | binding result [3] | Binder
no binding | binds | – | B1
– | – | no binding | B2
